# Article PMC4102840 (Journal of Biomedical Research, 2014)
# B1: yellow fluorescent protein (YFP)-GRP78 (78 kDa glucose-regulated protein) (natural protein)
# chain: not shown
# Target: T1, cyan fluorescent protein (CFP)-SR-A (class A scavenger receptor) (human, UniProt P21757 1-451)
# T1 sequence (looked up): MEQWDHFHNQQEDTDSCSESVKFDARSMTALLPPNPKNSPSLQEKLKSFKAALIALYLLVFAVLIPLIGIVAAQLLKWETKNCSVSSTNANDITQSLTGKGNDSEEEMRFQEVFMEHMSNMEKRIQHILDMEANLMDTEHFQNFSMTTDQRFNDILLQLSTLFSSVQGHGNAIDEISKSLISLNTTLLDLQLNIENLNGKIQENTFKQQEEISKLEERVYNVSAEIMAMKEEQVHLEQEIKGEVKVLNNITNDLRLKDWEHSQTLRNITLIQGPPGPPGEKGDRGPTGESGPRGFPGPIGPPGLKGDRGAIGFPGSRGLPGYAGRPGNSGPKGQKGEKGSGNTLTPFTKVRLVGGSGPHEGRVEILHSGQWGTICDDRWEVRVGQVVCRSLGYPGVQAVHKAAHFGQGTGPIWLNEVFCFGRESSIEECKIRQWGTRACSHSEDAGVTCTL
# Assay: FRET or BRET
binder,measurement,value
B1,FR (mean FRET ratio),2.17
